The source of these data is US5691166.

Bounds are passed on as bounds.

The target of test [1] is acid-denatured hemoglobin.
In test [2] the target is epidermal growth factor (recombinantly synthesized molecule consisting of the first 52 amino acids of the authentic 53 amino acid EGF molecule).
Test [3] addresses growth hormone releasing factor (recombinantly synthesized as described in EP 206783).

In turn, “Saccharomyces cerevisiae proteinase A (encoded by the S. cerevisiae PEP4 gene) (from UniProt P07267) (enzyme)” showed a proteinase A activity, ΔOD/µg protein (release of amino acids from acid-denatured hemoglobin, 90 min) (ΔOD/µg protein) in test [1] of 28.1.
On to “proteolytic activity of the cell-free broth from the one-liter fermentation of the pep4 P. pastoris strain p13”, for which, in test [2], the intact peptide remaining after 8 h incubation in broth (reverse phase HPLC) is greater than 90 % intact. Further, the intact peptide remaining after 4 h incubation in broth (reverse phase HPLC) in test [3] was greater than 60 % intact.
Take “Pichia pastoris proteinase A (product of the Pichia PEP4 gene) (enzyme)”: in test [1], the proteinase A activity, ΔOD/µg protein (release of amino acids from acid-denatured hemoglobin, 90 min) (ΔOD/µg protein) was 13.1.
On to “proteolytic activity of the cell-free broth from a one-liter fermentation of the HIS4 PEP4 P. pastoris strain G+PAO804H2”, for which the intact peptide remaining after 8 h incubation in broth (reverse phase HPLC) in test [2] is less than 10 % intact. Besides, the intact peptide remaining after 4 h incubation in broth (reverse phase HPLC) in test [3] is less than 10 % intact.
